Results reported in patent US20140370026A1 (TRUSTEES OF PRINCETON UNIVERSITY, published 2014).

T1: human CMV glycoprotein gM (UL100-coded) (human CMV, UniProt P16733 1-372)
T1 sequence: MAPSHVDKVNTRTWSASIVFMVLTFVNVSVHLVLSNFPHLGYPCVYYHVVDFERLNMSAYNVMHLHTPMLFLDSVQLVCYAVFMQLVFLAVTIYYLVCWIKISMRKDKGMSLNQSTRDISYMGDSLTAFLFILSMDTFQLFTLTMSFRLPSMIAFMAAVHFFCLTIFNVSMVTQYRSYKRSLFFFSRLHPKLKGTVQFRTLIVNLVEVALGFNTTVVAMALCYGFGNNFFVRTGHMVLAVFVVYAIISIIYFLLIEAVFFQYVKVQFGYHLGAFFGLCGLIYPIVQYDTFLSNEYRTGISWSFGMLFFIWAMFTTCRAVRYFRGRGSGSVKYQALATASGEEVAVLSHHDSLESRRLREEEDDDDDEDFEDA

B1: human CMV glycoprotein gN (UL73-coded) (other)
chain: NNSSTSTSATTSKSSASVSTTKLTTVATTSATTTTTTTLSTTSTKLSSTTHDPNVMRRHANDDFYKAHCTSHMYELSLSSFAAWWTMLNALILMGAFCIVLRHCCFQNFTATTTKGY
notes: also called ~60-kDa protein
B2: human CMV glycoprotein gO (UL74-coded) (other)
chain: KVMSKALYNRPWRGLVLSKIGKYKLDQLKLEILRQLETTISTKYNVSKQPVKNLTMNMTEFPQYYILAGPIQNYSITYLWFDFYSTQLRKPAKYVYSQYNHTAKTITFRPPPCGTVPSMTCLSEMLNVSKRNDTGEQGCGNFTTFNPMFFNVPRWNTKLYVGPTKVNVDSQTIYFLGLTALLLRYAQRNCTHSFYLVNAMSRNLFRVPKYINGTKLKNTMRKLKRKQAPVKEQFEKKAKKTQSTTTPYFSYTTSAALNVTTNVTYSITTAARRVSTSTIAYRPDSSFMKSIMATQLRDLATWVYTTLRYRQNPFCEPSRNRTAVSEFMKNTHVLIRNETPYTIYGTLDMSSLYYNETMFVENKTASDSNKTTPTSPSMGFQRTFIDPLWDYLDSLLFLDEIRNFSLRSPTYVNLTPPEHRRAVNLSTLNSLWWWLQ
B3: human CMV pUL128 (other)
chain: EECCEFINVNHPPERCYDFKMCNRFTVALRCPDGEVCYSPEKTAEIRGIVTTMTHSLTRQVVHNKLTSCNYNPLYLEADGRIRCGKVNDKAQYLLGAAGSVPYRWINLEYDKITRIVGLDQYLESVKKHKRLDVCRAKMGYMLQ
notes: also called UL128 protein; 16-kDa protein

Columns and labels:
[1] = target: T1, human CMV glycoprotein gM (UL100-coded); experiment: co-immunoprecipitation with anti-gM IMP91-3/1
human CMV pUL130 = target: T2, human CMV pUL130 (human CMV, UniProt P16772 26-214); experiment: co-immunoprecipitation with anti-gO from radiolabeled infected MRC-5 lysates (FIG. 3A)
T2 construct: also called UL130 protein; 33- to 35-kDa protein

[2] = target: human CMV glycoprotein gH (UL75-coded) (human CMV, UniProt P12824 24-743); experiment: co-immunoprecipitation with anti-gH 14-4b
[3] = target: B2; experiment: co-immunoprecipitation with anti-gO from radiolabeled infected MRC-5 lysates (FIG. 3A)

Does B1 bind [1]?
Result: binds

Does B2 bind (human CMV pUL130)?
Result: no binding

Does B2 bind [2]?
Result: binds

Does B3 bind [3]?
Result: no binding
